US20140093477A1

Assays:
[1] = target: fibronectin from human plasma (full-length soluble fibronectin) (human) (UniProt P02751); assay: fluorescence saturation binding, fluorophore-labeled MBP-MAM on immobilized fibronectin (coated plates)
[2] = target: fibronectin on host cells (UniProt P02751); assay: cell-based or functional assay

MBP-MAM6 (6xHis-MBP-Cys-six mce domains), Alexa Fluor 488-labeled
Kd [1]: 36 µM

MBP-MAM7 (6xHis-MBP-Cys-MAM7, seven mce domains), Alexa Fluor 488-labeled (from UniProt P0AEX9 27-392)
delay of attachment of labeled MAM7 protein to trypsin-treated host cells [2]: 1 h
